Reference: article PMC4613909

Biological target: Artemia salina 40S ribosomal subunit (Artemia salina)
Test: iRIA (in vitro Ribosomes Interaction Assay, microwell solid-phase binding); 40S immobilised, labeled 60S displaced by 5-fold unlabeled 60S; room temperature, 10 minutes

percent displacement of labeled 60S by 5-fold unlabeled 60S: 50%
Substance: Artemia salina 60S ribosomal subunit (mature) (complex)
